Source: the supplement of paper PMC7877785
± gives the uncertainty stated by the source.

Experiment: self-splicing fitness, log relative to wild type (ln ratio); higher = more splicing; Tetrahymena group I intron in knt gene, E. coli kanamycin selection, DiMSum; sequences stand for … in CUCUCU…GGAGGGAAAAGUUAUCAGGCAUGCACCUGGUAGCUAGUCUUUAAACCAAUAGAUUGCAUCGGUUUAAAAGGCAAGACCGUCAAAUUGCGGGAAAGGGGUCAACAGCCGUUCAGUACCAAGUCUCAGGGGAAACUUUGAGAUGGCCUUGCAAAGGGUAUGGUAAUAAGCUGACGGACAUGGUCCUAACCACGCAGCCAAGUCCUAAGUCAACAGAUCUUCUGUUGAUAUGGAUGCAGUUCACAGACUAAAUGUCGGUCGGGGAAGAUGUAUUCUUCUCAUAAGAUAUAGUCGGACCUCUCCUUAAUGGGAGCUAGCGGAUGAAGUGAUGCAACACUGGAGCCGCUGGGAACUAAUUUGUAUGCGAAAGUAUAUUGAUUAGUUUUGGAGUACUCGUGGUCG
In short: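 Library with all eight P1ex-region intron nucleotides randomised, intron inside the knt kanamycin-resistance gene on pET-22b(+), in E. coli BL21(DE3). Cells grew overnight at 37°C or 30°C on LB agar with or without 25 μg/mL kanamycin (plus 100 μg/mL carbenicillin, 50 μM IPTG, 0.2% rhamnose), in six replicate transformations. Pooled colonies were amplicon-sequenced on Illumina HiSeq 2500. DiMSum fitness is the error-weighted combination of wild-type-normalised replicate fold changes, kanamycin versus none.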

Sequence | self-splicing fitness (ln) (30 °C) | self-splicing fitness (ln) (37 °C)
UCGCAGCAAUAUUACGAUAA | -1.91 ± 0.14 | -0.243 ± 0.14
GCUAAGCAAUAUUACGGAAG | -1.5 ± 0.071 | -0.648 ± 0.088
UAACAGCAAUAUUACGACAC | -3.35 ± 0.16 | -0.676 ± 0.11
CACCAGCAAUAUUACGCCAG | -0.583 ± 0.075 | 0.205 ± 0.097
AGCAAGCAAUAUUACGCUUU | -2.23 ± 0.17 | -1.55 ± 0.12
UCAGAGCAAUAUUACGAAAA |  | -2.13 ± 0.48
GAAUAGCAAUAUUACGCGAC | -1.89 ± 0.2 | 0.34 ± 0.18
UUAGAGCAAUAUUACGCUGU | -3.47 ± 0.36 | -1.56 ± 0.21
GUAAAGCAAUAUUACGACCC | -1.28 ± 0.32 | -0.886 ± 0.41
CGGUAGCAAUAUUACGACGU | -1.76 ± 0.13 | -1.08 ± 0.17
AGGAAGCAAUAUUACGGUAC | -3.99 ± 0.36 | -3.03 ± 0.25
GAUGAGCAAUAUUACGAAGU | -2.87 ± 0.22 | -2.84 ± 0.28
AUCUAGCAAUAUUACGGUAG | -3.92 ± 0.28 | -2.13 ± 0.22
AACCAGCAAUAUUACGGUUA | -2.14 ± 0.099 | -0.269 ± 0.084
UCUGAGCAAUAUUACGUGAU | -3.42 ± 0.23 | -1.42 ± 0.44
GCACAGCAAUAUUACGUCUU | -0.723 ± 0.053 | 0.267 ± 0.064
CCCAAGCAAUAUUACGUUCA | -3.21 ± 0.23 | -2.39 ± 0.29
GUACAGCAAUAUUACGUGUC | -3.39 ± 0.2 | -2.06 ± 0.2
UUUAAGCAAUAUUACGUGUC | -3.99 ± 0.33 | -2.65 ± 0.25
CCGUAGCAAUAUUACGAAAC | -2.61 ± 0.41 | -0.972 ± 0.29
ACCGAGCAAUAUUACGAUCG | -3.05 ± 0.33 | -1.64 ± 0.27
GCUCAGCAAUAUUACGAGGC | -4.34 ± 0.42 | -1.42 ± 0.19
ACUGAGCAAUAUUACGCUUA | -3.12 ± 0.38 | -1.88 ± 0.2
AUAUAGCAAUAUUACGUGGC |  | -2.67 ± 0.31
CCCAAGCAAUAUUACGUAGG | -2.17 ± 0.067 | -1.56 ± 0.082

Sequence | self-splicing fitness (ln) (30 °C) | self-splicing fitness (ln) (37 °C)
GACUAGCAAUAUUACGGACG | -1.4 ± 0.21 | -1.85 ± 0.13
AUUGAGCAAUAUUACGCCGC | -2.67 ± 0.49 | 
UGCGAGCAAUAUUACGAUAU |  | -2.61 ± 0.36
GCAGAGCAAUAUUACGUGGU | -3.94 ± 0.17 | -2.27 ± 0.18
AGCUAGCAAUAUUACGGAAC | -2.7 ± 0.2 | -2.38 ± 0.24
GAUAAGCAAUAUUACGCGCU | -1.44 ± 0.14 | -1.47 ± 0.15
CGGCAGCAAUAUUACGUACC | -2.07 ± 0.19 | -1.61 ± 0.25
GCUGAGCAAUAUUACGACCA | -3.18 ± 0.41 | -1.57 ± 0.39
AGCGAGCAAUAUUACGGUGG | -2.67 ± 0.15 | -2.11 ± 0.25
CCCUAGCAAUAUUACGCGUG | -5.09 ± 0.41 | -1.06 ± 0.13
AAGGAGCAAUAUUACGAUGG | -3.59 ± 0.27 | -2.11 ± 0.23
GGCGAGCAAUAUUACGGGUC | -1.2 ± 0.26 | -1.81 ± 0.35
AUCGAGCAAUAUUACGCGAA | -1.68 ± 0.2 | -0.699 ± 0.2
UUUGAGCAAUAUUACGGUCA | -1.47 ± 0.28 | -3.07 ± 0.4
UAGGAGCAAUAUUACGACCG | 0.0998 ± 0.18 | -0.0128 ± 0.23
CGCGAGCAAUAUUACGGGAC | -3.07 ± 0.25 | -2.43 ± 0.45
UUCCAGCAAUAUUACGCUAG | -2.89 ± 0.17 | -1.96 ± 0.2
UUCGAGCAAUAUUACGCCCA | -2.1 ± 0.31 | -1.15 ± 0.22
CCCGAGCAAUAUUACGAAUA | -3.44 ± 0.2 | -2.89 ± 0.21
UUAUAGCAAUAUUACGGAAA | -2.13 ± 0.22 | -1.67 ± 0.23
CUAAAGCAAUAUUACGAUAG | 0.0858 ± 0.072 | 0.313 ± 0.085
ACUCAGCAAUAUUACGCAAU | -1.37 ± 0.078 | -0.643 ± 0.093
CGCCAGCAAUAUUACGAACG | -0.982 ± 0.097 | 0.0565 ± 0.12
GCUUAGCAAUAUUACGCCAU |  | -2.2 ± 0.39
CCCAAGCAAUAUUACGCUGC | -2.44 ± 0.2 | -2.43 ± 0.41

Sequence | self-splicing fitness (ln) (30 °C) | self-splicing fitness (ln) (37 °C)
UCACAGCAAUAUUACGGCGC | -2.08 ± 0.1 | -1.02 ± 0.12
ACGAAGCAAUAUUACGUUUA | -2.05 ± 0.11 | -0.875 ± 0.085
CAGAAGCAAUAUUACGAAUU | -3.5 ± 0.2 | -2.05 ± 0.27
AUGUAGCAAUAUUACGUUGU | -3.85 ± 0.15 | -1.27 ± 0.092
GCUCAGCAAUAUUACGGAAC | -0.677 ± 0.073 | 0.0247 ± 0.11
ACUUAGCAAUAUUACGAGGA | -1.87 ± 0.16 | -1.66 ± 0.23
GGAUAGCAAUAUUACGCGUU | -1.98 ± 0.42 | -2.06 ± 0.47
CAGCAGCAAUAUUACGCUCU | -3.08 ± 0.16 | -2.08 ± 0.17
GUCUAGCAAUAUUACGACGC | -0.0791 ± 0.12 | 0.364 ± 0.14
CGAAAGCAAUAUUACGAGUU | -3.72 ± 0.44 | -2.21 ± 0.23
CCACAGCAAUAUUACGCCCU | -2.75 ± 0.25 | -2.08 ± 0.23
CGUGAGCAAUAUUACGAAAC |  | -0.708 ± 0.31
GUCCAGCAAUAUUACGCUGC | -1.85 ± 0.34 | 0.221 ± 0.36
GAGUAGCAAUAUUACGAGUG | -2.34 ± 0.091 | -0.452 ± 0.11
AUUGAGCAAUAUUACGUUUG |  | -1.91 ± 0.26
AGCAAGCAAUAUUACGGGGG | -3.78 ± 0.15 | -2.45 ± 0.19
AAGUAGCAAUAUUACGGAUU | -0.677 ± 0.092 | -0.751 ± 0.11
UUCCAGCAAUAUUACGCCCC | -2.4 ± 0.25 | 
AACGAGCAAUAUUACGAUCG | -1.19 ± 0.14 | -1.06 ± 0.16
UGUCAGCAAUAUUACGCACC | -1.28 ± 0.18 | -0.269 ± 0.21
CCGGAGCAAUAUUACGCUGU | -4.31 ± 0.34 | -2.4 ± 0.4
GAUAAGCAAUAUUACGGAUU | -3.19 ± 0.14 | -1.91 ± 0.12
GGGGAGCAAUAUUACGUAGA | -2.43 ± 0.31 | -1.7 ± 0.4
ACGAAGCAAUAUUACGGUCA | -1.35 ± 0.14 | -0.053 ± 0.13
GCGCAGCAAUAUUACGAUGC | -2.63 ± 0.17 | -0.824 ± 0.17

Sequence | self-splicing fitness (ln) (30 °C) | self-splicing fitness (ln) (37 °C)
UCCCAGCAAUAUUACGUAAG | -3.88 ± 0.18 | -1.97 ± 0.17
CAGCAGCAAUAUUACGCGCA | -0.471 ± 0.13 | -0.346 ± 0.16
AUCAAGCAAUAUUACGCGCC | -1.23 ± 0.14 | -0.474 ± 0.17
AGUAAGCAAUAUUACGUCGC |  | -1.65 ± 0.31
CUCUAGCAAUAUUACGAAUU | -3.81 ± 0.29 | -3.19 ± 0.4
GGUGAGCAAUAUUACGCUAU | -1.77 ± 0.32 | -2.94 ± 0.4
GGCCAGCAAUAUUACGACUC | -1.21 ± 0.11 | 0.0572 ± 0.13
CAUGAGCAAUAUUACGAUUA | -3.08 ± 0.24 | -2.02 ± 0.21
UAAAAGCAAUAUUACGCUCG | -0.628 ± 0.084 | 0.0432 ± 0.099
CACAAGCAAUAUUACGUAGC | -4 ± 0.12 | -2.59 ± 0.13
GUAAAGCAAUAUUACGGGAA | -2.36 ± 0.11 | -0.287 ± 0.12
CCAGAGCAAUAUUACGCUAA | -2.74 ± 0.24 | -2.57 ± 0.24
UUAUAGCAAUAUUACGAGCG | -0.835 ± 0.28 | -0.754 ± 0.29
GUCGAGCAAUAUUACGACCA |  | -0.961 ± 0.42
GACUAGCAAUAUUACGACAG | -2.92 ± 0.14 | -2.4 ± 0.2
UGCCAGCAAUAUUACGAGAU | -3.75 ± 0.26 | -2.32 ± 0.21
GAAGAGCAAUAUUACGAAGG | -2.75 ± 0.17 | -3.62 ± 0.46
CCCUAGCAAUAUUACGCAUA | -3.33 ± 0.27 | -1.99 ± 0.2
GUAGAGCAAUAUUACGGGAA | -3.56 ± 0.32 | -2.35 ± 0.26
UUAAAGCAAUAUUACGACUC | -0.15 ± 0.12 | -0.0274 ± 0.15
CUUAAGCAAUAUUACGAGCC |  | -3.51 ± 0.48
UGCCAGCAAUAUUACGUUCU | -2.37 ± 0.17 | -1.23 ± 0.14
AGCUAGCAAUAUUACGAAUG | -2.09 ± 0.17 | -2.27 ± 0.29
